Test results reported in patent US11046988B2, “Process for the modification of a glycoprotein using a β-(1,4)-N-acetylgalactosaminyl transferase or a mutant thereof” (Synaffix B.V., priority 2014, dated 2021).
Numbering of substitutions follows the chain as printed. In names and notes the source's numbering stands.

B1: TnGalNAcT(W336H): T. ni GalNAcT mutant, tryptophan 336 to histidine, SEQ ID NO: 51 (protein)
chain: MGGRATRALRLLLLLVLALAAVEYLFGSILDASPLRTYLYTPLYNATQPTLRNVERLAANWPKKIPSNYIEDSEEYSIKNISLSNHTTRASVVHPPSSITETASKLDKNMTIQDGAFAMISPTPLLITKLMDSIKSYVTTEDGVKKAEAVVTLPLCDSMPPDLGPITLNKTELELEWVEKKFPEVEWGGRYSPPNCTARHRVAIIVPYRDRQQHLAIFLNHMHPFLMKQQIEYGIFIVEQEGNKDFNRAKLMNVGFVESQKLVAEGWQCFVFHDIDLLPLDTRNLYSCPRQPRHMSASIDKLHFKLPYEDIFGGVSAMTLEQFTRVNGFSNKYWGHGGEDDDMSYRLKKINYHIARYKMSIARYAMLDHKKSTPNPKRYQLLSQTSKTFQKDGLSTLEYELVQVVQYHLYTHILVNIDERS
B2: TnGalNAcT(I299M): T. ni GalNAcT mutant, isoleucine 299 to methionine, SEQ ID NO: 45 (protein)
chain: B1 chain with I299M, H336W
B3: DmGalNAcT: truncated Drosophila melanogaster β-(1,4)-GalNAcT, amino acids 47-403 of SEQ ID NO: 5 (SEQ ID NO: 9) (protein)
chain: HKYAHIYGNASSDGAGGSEASRLPASPLALSKDRERDQELNGGPNSTIRTVIATANFTSIPQDLTRFLLGTKKFLPPRQKSTSALLANCTDPDPRDGGPITPNTTLESLDVIEAELGPLLRPGGAFEPENCNAQHHVAIVVPFRDRYAHLLLFLRNIHPFLMKQRIAYRIFIVEQTNGKPFNRAAMMNIGYLEALKLYQWDCFIFHDVDLLPLDDRNLYNCPRQPRHMSVAIDTLNFRLPYRSIFGGVSAMTREHFQAVNGFSNSFFGWGGEDDDMSNRLKHANLFISRYPVNIARYKMLKHQKEKANPKRYENLQNGMSKIEQDGINSIKYSIYSIKQFPTFTWYLAELKNSERKS
modifications: DmGalNAcT (47-403)
B4: AsGalNAcT: truncated Ascaris suum β-(1,4)-GalNAcT, amino acids 30-383 of SEQ ID NO: 3 (SEQ ID NO: 7) (protein)
chain: DYSFWSPAFIISAPKTLTTLQPFSQSTSTNDLAVSALESVEFSMLDNSSILHASDNWTNDELVMRAQNENLQLCPMTPPALVGPIKVWMDAPSFAELERLYPFLEPGGHGMPTACRARHRVAIVVPYRDRESHLRTFLHNLHSLLTKQQLDYAIFVVEQTANETFNRAKLMNVGYAEAIRLYDWRCFIFHDVDLLPEDDRNLYSCPDEPRHMSVAVDKFNYKLPYGSIFGGISALTREQFEGINGFSNDYWGWGGEDDDLSTRVTLAGYKISRYPAEIARYKMIKHNSEKKNPVNRCRYKLMSATKSRWRNDGLSSLSYDLISLGRLPLYTHIKVDLLEKQSRRYLRTHGFPTC
modifications: AsGalNAcT (30-383)
B5: TnGalNAcT(wt): wild-type TnGalNAcT compared with the mutants; probably His6-TnGalNAcT(33-421), SEQ ID NO: 49, from E. coli (protein)
chain: MGSSHHHHHHSSGLVPRGSHMSPLRTYLYTPLYNATQPTLRNVERLAANWPKKIPSNYIEDSEEYSIKNISLSNHTTRASVVHPPSSITETASKLDKNMTIQDGAFAMISPTPLLITKLMDSIKSYVTTEDGVKKAEAVVTLPLCDSMPPDLGPITLNKTELELEWVEKKFPEVEWGGRYSPPNCTARHRVAIIVPYRDRQQHLAIFLNHMHPFLMKQQIEYGIFIVEQEGNKDFNRAKLMNVGFVESQKLVAEGWQCFVFHDIDLLPLDTRNLYSCPRQPRHMSASIDKLHFKLPYEDIFGGVSAMTLEQFTRVNGFSNKYWGWGGEDDDMSYRLKKINYHIARYKMSIARYAMLDHKKSTPNPKRYQLLSQTSKTFQKDGLSTLEYELVQVVQYHLYTHILVNIDERS
modifications: His6-TnGalNAcT(33-421)
B6: TnGalNAcT(L302A): T. ni GalNAcT mutant, leucine 302 to alanine, SEQ ID NO: 43 (protein)
chain: B5 chain with L291A
modifications: His6-TnGalNAcT(33-421; L302A)
B7: TnGalNAcT(E339A): T. ni GalNAcT mutant, glutamic acid 339 to alanine, SEQ ID NO: 53 (protein)
chain: B5 chain with E328A
modifications: His6-TnGalNAcT(33-421; E339A)
B8: TnGalNAcT(W336V): T. ni GalNAcT mutant, tryptophan 336 to valine, SEQ ID NO: 52 (protein)
chain: B5 chain with W325V
modifications: His6-TnGalNAcT(33-421; W336V)
B9: TnGalNAcT(L302G): T. ni GalNAcT mutant, leucine 302 to glycine, SEQ ID NO: 44 (protein)
chain: B5 chain with L291G
modifications: His6-TnGalNAcT(33-421; L302G)
B10: TnGalNAcT(W336F): T. ni GalNAcT mutant, tryptophan 336 to phenylalanine, SEQ ID NO: 50 (protein)
chain: B5 chain with W325F
modifications: His6-TnGalNAcT(33-421; W336F)

Tested on: trimmed trastuzumab (core GlcNAc(Fuc) / core GlcNAc, glycan of formula (1))
Experiment: Glycosyltransfer of sugar derivative to trimmed (Endo S deglycosylated) trastuzumab, MS analysis
Format: biochemical
Details: for cumulative conversions of the major and minor product, F2-GalNBzN3 transfer: UDP-F2-GalNBzN3 (24) 1 mM, enzyme 0.5 mg/mL; for major heavy chain product, F2-GalNAz transfer to core GlcNAc(Fuc)-substituted trastuzumab: UDP-F2-GalNAz 0.4 mM, GalNAcT 1 mg/mL, 10 mM MnCl2, pH 8.0, 16 hours, 30° C.; for cumulative conversions of the major and minor product, F2-GalNAz transfer: UDP-F2-GalNAz (18) 1 mM, enzyme 0.25 mg/mL
Procedure: Trimming of IgG glycans was performed using Endo S from Streptococcus pyogenes (commercially available from Genovis, Lund, Sweden). The IgG (10 mg/mL) was incubated with Endo S (40 U/mL) in 25 mM Tris pH 8.0 for approximately 16 hours at 37° C. The deglycosylated IgG was concentrated and washed with 10 mM MnCl2 and 25 mM Tris-HCl pH 8.0 using an Amicon Ultra-0.5, Ultracel-10 Membrane (Millipore).
Trastuzumab was subjected to the trimming protocol above. Analysis of the trimmed antibody was performed on a JEOL AccuToF equipped with an Agilent 1100 HPLC. Samples (2 μL) were reduced with DTT (2 μL) during 10 min and subsequently diluted with H2O (40 μL) prior to injection. […] The two peaks of heavy chain belonged to one major product (49496 Da, 90% of total heavy chain), resulting from core GlcNAc(Fuc) substituted trastuzumab, and a minor product (49351 Da, ±10% of total heavy chain), resulting from core GlcNac substituted trastuzumab. This is an example of a glycoprotein comprising a glycan according to formula (1).
A solution of 50 μg (modified) IgG, 1 M Tris-HCl pH 8.0, 1 mM EDTA and 30 mM DTT with a total volume of approximately 70 μL was incubated for 20 minutes at 37° C. to reduce the disulfide bridges allowing to analyze both light and heavy chain. If present, azide-functionalities are reduced to amines under these conditions. Reduced samples were washed trice with milliQ using an Amicon Ultra-0.5, Ultracel-10 Membrane (Millipore) and concentrated to 10 μM (modified) IgG. The reduced IgG was analyzed by electrospray ionization time-of-flight (ESI-TOF) on a JEOL AccuTOF. Deconvoluted spectra were obtained using Magtran software.
Enzymatic introduction of galactose derivative (e.g. azido-containing sugar) onto IgG was effected with a GalNAc-transferase or a mutant thereof. The deglycosylated IgG (prepared as described above, 10 mg/mL) was incubated with a modified UDP-galactose derivative (e.g. an azido-modified sugar-UDP derivative) (0.4 mM) and GalNAcT (1 mg/mL) in 10 mM MnCl2 and 25 mM Tris-HCl pH 8.0 for 16 hours at 30° C. The functionalized IgG (e.g. azido-functionalized IgG) was incubated with protein A agarose (40 μL per mg IgG) for 2 hours at 4° C. The protein A agarose was washed three times with PBS and the IgG was eluted with 100 mM glycine-HCl pH 2.7. The eluted IgG was neutralized with 1 M Tris-HCl pH 8.0 and concentrated and washed with PBS using an Amicon Ultra-0.5, Ultracel-10 Membrane (Millipore) to a concentration of 15-20 mg/mL.
Enzymatic introduction of galactose derivative (e.g. thio-containing sugar 21) onto IgG was effected with a GalNAc-transferase or a mutant thereof. The deglycosylated IgG (prepared as described above, 10 mg/mL) was incubated with a modified UDP-galactose derivative (e.g. an thio-modified sugar-UDP derivative) (2 mM) and GalNAcT (0.2 mg/mL) in 10 mM MnCl2 and 50 mM Tris-HCl pH 6.0 for 16 hours at 30° C. The functionalized IgG (e.g. thio-functionalized trastuzumab) was incubated with protein A agarose (40 μL per mg IgG) for 1 hours at rt. The protein A agarose was washed three times with TBS (pH 6.0) and the IgG was eluted with 100 mM glycine-HCl pH 2.5. The eluted IgG was neutralized with 1 M Tris-HCl pH 7.0 and concentrated and washed with 50 mM Tris-HCl pH 6.0 using an Amicon Ultra-0.5, Ultracel-10 Membrane (Millipore) to a concentration of 15-20 mg/mL.

Row | Molecule | cumulative conversions of the major and minor product, F2-GalNBzN3 transfer (overnight) [%] | cumulative conversions of the major and minor product, F2-GalNAz transfer (overnight) [%] | also measured
1 | B1 | 62 |  | 
2 | B2 | 26 |  | 
3 | B3 |  |  | major heavy chain product, F2-GalNAz transfer to core GlcNAc(Fuc)-substituted trastuzumab: approximately 90 % of total heavy chain
4 | B4 |  |  | major heavy chain product, F2-GalNAz transfer to core GlcNAc(Fuc)-substituted trastuzumab: approximately 90 % of total heavy chain; major product, GalNButN3 transfer to core GlcNAc(Fuc) substituted trastuzumab (UDP-GalNButN3 0.7 mM, AsGalNAcT(wt) 0.2 mg/mL, overnight): 50 % of total heavy chain; major product, GalNProSH transfer to core GlcNAc(Fuc) substituted trastuzumab (UDP-GalNProSH 2 mM, AsGalNAcT 0.2 mg/mL, overnight): 95 % of total heavy chain; major product, GalNPropN3 transfer to core GlcNAc(Fuc) substituted trastuzumab (UDP-GalNPropN3 0.7 mM, AsGalNAcT 0.2 mg/mL, overnight): 70 % of total heavy chain
5 | B5 | 14 | 95 | 
6 | B6 | 37 | 95 | 
7 | B7 |  | 5 | 
8 | B8 |  | 27 | 
9 | B9 | 14 |  | 
10 | B10 |  | 24 | 
